Biological target: _(SUMO)BMC-HRmm (SUMOylated BMC-H protein of Mycobacterium smegmatis) (Mycobacterium smegmatis)
Assay: SEC

stoichiometry N: 6
Substance: _(SUMO)BMC-HRmm (SUMOylated BMC-H protein of Mycobacterium smegmatis) (natural protein)

Source: PMC6309364
